Test system: MS2 coat protein
Test: apparent KD of MS2 coat protein; higher = weaker reporter binding
Details: Eterna round: R107
In short: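 Titration buffer: 100 mM Tris-HCl pH 7.5, 80 mM KCl, 4 mM MgCl2, without or with constant ligand. Designed RNA switches transcribed on-chip from Illumina sequencing clusters received SNAP-549-labelled MS2 coat protein in twofold steps from 0.7 or 1.5 nM to 3 µM. Apparent KD is the median per design of fits to normalised cluster binding curves.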

[1] = input ligand: theophylline 20 uM
[2] = input ligand: theophylline 2 mM
[3] = input ligand: tryptophan 2.4 mM

## UCGCGAGAGGGAAGGAGCGUCAGCUGAGUCACAUGAGGAUCACCCAUGUCGCACAUAGUGUGACAGGUAGGUCGCCCUCCGCCCU [Leinticees]
Input ligand: arginine 13.2 mM
  apparent KD of MS2 coat protein: 99.6 nM
Input ligand: none
  apparent KD of MS2 coat protein: 134 nM
[1]
  apparent KD of MS2 coat protein: 248 nM
[2]
  apparent KD of MS2 coat protein: 192 nM
[3]
  apparent KD of MS2 coat protein: 157 nM

## UCGCUCGCCGGAAGGCGAGCGAGUUGCGAUACCAGCCCGGAAACGGGCCCUUGGCAGCGCACAUGAGGAUCACCCAUGUCAUGUU [#1 Exclusion - Theophylline A Attempt #6 (HarryS)]
Input ligand: arginine 13.2 mM
  apparent KD of MS2 coat protein: 24.3 nM
[1]
  apparent KD of MS2 coat protein: 27.5 nM
[3]
  apparent KD of MS2 coat protein: 18.3 nM

## UCGCUCUGGGUGAAAUCCGGAGAUGUGGAAGGAGCGCUCGAAAGAGCAGGUAGGUCGCCAACGGACAUGAGGAUCACCCAUGUAC [Same State - Arginine A (Freestyle 20)]
Input ligand: arginine 13.2 mM
  apparent KD of MS2 coat protein: 31 nM
Input ligand: none
  apparent KD of MS2 coat protein: 29.6 nM
[1]
  apparent KD of MS2 coat protein: 50 nM
[2]
  apparent KD of MS2 coat protein: 75.3 nM
[3]
  apparent KD of MS2 coat protein: 38.3 nM

## UCGCUCUGGGUGAGAUCCGGAGAUGUGGAAGGAGCGCUGGUUCCAGCAGGUAGGUCGCCAACGGACAUGAGGAUCACCCAUGUAC [Same State - Arginine A (Freestyle 13)]
Input ligand: arginine 13.2 mM
  apparent KD of MS2 coat protein: 39.2 nM
Input ligand: none
  apparent KD of MS2 coat protein: 51.7 nM
[1]
  apparent KD of MS2 coat protein: 63.1 nM
[2]
  apparent KD of MS2 coat protein: 70.4 nM
[3]
  apparent KD of MS2 coat protein: 45.9 nM

## UCGGACAUGAGGAUCACCCAUGUAAAUCCUCGAGGACCGGUACGGCCGCCACUCGAACGAGUGGCGCGCGAGCGCGCGCUCGCGC [aGa]
Input ligand: arginine 13.2 mM
  apparent KD of MS2 coat protein: 20.4 nM
Input ligand: none
  apparent KD of MS2 coat protein: 43.8 nM
[1]
  apparent KD of MS2 coat protein: 67.7 nM
[2]
  apparent KD of MS2 coat protein: 62.5 nM
[3]
  apparent KD of MS2 coat protein: 36.9 nM

## UCGGGAACAUGAGGAUCACCCAUGUCAGAAGGAGCGCUGAGAGAAGCAGGUAGGUCGCUGACGUAGGAGCUCUCUUCCUAUACGC [Exclusion - Arginine A]
Input ligand: arginine 13.2 mM
  apparent KD of MS2 coat protein: 23.3 nM
Input ligand: none
  apparent KD of MS2 coat protein: 30.6 nM
[1]
  apparent KD of MS2 coat protein: 40.1 nM
[2]
  apparent KD of MS2 coat protein: 35.4 nM
[3]
  apparent KD of MS2 coat protein: 25.4 nM

## UCGGGCAGAGCGGCCGCCACUGUUUGGCGUGCGGAUGAAGGAACAUGAGGAUCACCCAUGUUGAUUAGGACCGGGCUUGCGGAGA [kklmullin]
Input ligand: arginine 13.2 mM
  apparent KD of MS2 coat protein: 12.6 nM
Input ligand: none
  apparent KD of MS2 coat protein: 17.1 nM
[1]
  apparent KD of MS2 coat protein: 27 nM
[2]
  apparent KD of MS2 coat protein: 17.4 nM
[3]
  apparent KD of MS2 coat protein: 16.7 nM

## UCGUGUGUUUCGGAUACCAGUGUGGUCGAUACAUGAGGAUCACCCAUGUGAGAGGAGGUACACCCUUGGCAGCUGGCUGUUGCGG [qqwmullin]
Input ligand: arginine 13.2 mM
  apparent KD of MS2 coat protein: 39.7 nM
[1]
  apparent KD of MS2 coat protein: 82 nM
[3]
  apparent KD of MS2 coat protein: 77.5 nM

## UCGUUAUGGUCGGCCGCCACUCGCGGAGAGCAUAGCUCAAACAUGAGGAUCACCCAUGUAUCAUGGAGGACCGGGACCAUAACGU [Rxmullin variation #StaticStem]
Input ligand: arginine 13.2 mM
  apparent KD of MS2 coat protein: 30 nM
[1]
  apparent KD of MS2 coat protein: 46.1 nM
[2]
  apparent KD of MS2 coat protein: 42.7 nM

## UCGUUUUAGUCGGCCGCCACUGUAUGCAUGUUUAACAUGAGGAUCACCCAUGUCCCGUACUAUAACAGGACCGGGACGUAAUAGA [JR_SSTryptoB_Sub006]
Input ligand: arginine 13.2 mM
  apparent KD of MS2 coat protein: 112 nM
[1]
  apparent KD of MS2 coat protein: 207 nM
[2]
  apparent KD of MS2 coat protein: 936 nM

## UCUAGGCUCGGAAACGAGCCUAGUACAGAAGGAGCGUGGAUUAACACAGGUAGGUCGCUGACAUGAGGAUCACCCAUGUAUUAUU [SSAA #3]
Input ligand: arginine 13.2 mM
  apparent KD of MS2 coat protein: 32.5 nM
Input ligand: none
  apparent KD of MS2 coat protein: 24.3 nM
[1]
  apparent KD of MS2 coat protein: 38 nM
[2]
  apparent KD of MS2 coat protein: 31 nM
[3]
  apparent KD of MS2 coat protein: 27.7 nM

## UCUCGGUCUUUCUUUCUCCGAGAAUAUGAUACCAGUUAGUUUUAUGGCCCUUGGCAGCAUAGAACAUGAGGAUCACCCAUGUGUU [SSThA NP+V+V2 #9 +-Same Structure]
Input ligand: arginine 13.2 mM
  apparent KD of MS2 coat protein: 48.1 nM
[1]
  apparent KD of MS2 coat protein: 114 nM
[3]
  apparent KD of MS2 coat protein: 96.5 nM

## UCUGGGUCCGCAAGGACCUGGAGUUGCGAUACCAGCACGGUAACGUGCCCUUGGCAGCGCACAUGAGGAUCACCCAUGUGGUGUU [#1 Exclusion - Theophylline A Attempt #17 (HarryS)]
Input ligand: arginine 13.2 mM
  apparent KD of MS2 coat protein: 86.6 nM
[1]
  apparent KD of MS2 coat protein: 365 nM
[3]
  apparent KD of MS2 coat protein: 204 nM

## UCUUGAGUUUCGGAUACCAGUGAUGUCGAUACAUGAGGAUCACCCAUGUUAGAGGAUGUACACCCUUGGCAGCCGGGUGUGGCGG [wswmullin]
Input ligand: arginine 13.2 mM
  apparent KD of MS2 coat protein: 25.1 nM
Input ligand: none
  apparent KD of MS2 coat protein: 36 nM
[1]
  apparent KD of MS2 coat protein: 42.1 nM
[2]
  apparent KD of MS2 coat protein: 27.5 nM
[3]
  apparent KD of MS2 coat protein: 44.9 nM

## UGACAUUGCUCAGAUACCAGACAUGAGCAUCAGCCAUGUACCAAGAGUACAUAUUAAAAUGUCCCUUGGCAGCUGAGCAAUGUCU [Mod of Eli's TheoBX5 #AlternateMS2 v1]
Input ligand: arginine 13.2 mM
  apparent KD of MS2 coat protein: 15.2 nM
Input ligand: none
  apparent KD of MS2 coat protein: 11 nM
[1]
  apparent KD of MS2 coat protein: 18.7 nM
[2]
  apparent KD of MS2 coat protein: 166 nM
[3]
  apparent KD of MS2 coat protein: 11.8 nM

## UGACAUUGCUCAGAUACCAGACAUGAGGAUCACCCAUGUGCCAAAACGUACUAAAUAAAUGUCCCUUGGCAGCUGAGCAAUGUCU [TheoBX 13 #MS2Left #Theo2]
Input ligand: arginine 13.2 mM
  apparent KD of MS2 coat protein: 13.5 nM
[1]
  apparent KD of MS2 coat protein: 14.4 nM
[3]
  apparent KD of MS2 coat protein: 12.9 nM

## UGAGGGACCAGAAGGAGCGACAUGAGGAUCACCCAUGUCUCCCGUUAUGGGAGUUCUUUAGGUCAGGUAGGUCGCUGGUCCCUCA [#1 Exclusion - Arginine B Attempt #7 (Inspired by Omei)]
Input ligand: arginine 13.2 mM
  apparent KD of MS2 coat protein: 25.6 nM
Input ligand: none
  apparent KD of MS2 coat protein: 77.9 nM
[1]
  apparent KD of MS2 coat protein: 256 nM

## UGAUGGUGCUGAAGGAGCGUGUAAGAACAAGAACAUGAGGAUCACCCAUGUAUUAAUUUAACGCAGGUAGGUCGCGGUGUUAUUG [11.M]
Input ligand: arginine 13.2 mM
  apparent KD of MS2 coat protein: 22.4 nM
Input ligand: none
  apparent KD of MS2 coat protein: 20.2 nM
[1]
  apparent KD of MS2 coat protein: 30.7 nM
[2]
  apparent KD of MS2 coat protein: 22.4 nM
[3]
  apparent KD of MS2 coat protein: 18.6 nM
